The values that follow come from the supplement of paper PMC9170038.

The data set has as its system MS2 coat protein. The data set is described as follows: apparent KD of MS2 coat protein; designed switch direction (-1 OFF switch, 1 ON switch): -1; higher = weaker reporter binding. In outline:
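Designed RNA switches were transcribed on Illumina chips by stalled E. coli RNA polymerase and titrated with SNAP-549-labelled MS2 coat protein from 0.7 or 1.5 nM, doubling to 3 µM. Step length ran from 0.8–1.5 h at the lowest concentration to 10–20 min at the highest. The apparent KD is the median over clusters for each design, from curve-fitted normalised cluster fluorescence.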

Setting [1] is: Eterna round: R95, input ligand: microRNA oligo, concentration not stated.
The mark [2] stands for this setting: input ligand: microRNA oligo, concentration not stated.

Turning to “UAAUGUAUAUAGGAUAUCUAGCUGGUAACAGCUAGAGAAGGAUGUACAUGAGGAUCACCCAUGUAAAUCAGUGA [Ex6/14-B2] (Eterna round: R97, puzzle: Exclusion 6)”, the “apparent KD of MS2 coat protein” value (input ligand: FMN 200 uM) worked out at 186 nM and the “apparent KD of MS2 coat protein” value (input ligand: none) worked out at 41.6 nM.

As to “GUGUACGGAGGAUAUAUAUGGGCAGGCUGACCUGCAGCUUCACAUGAGGAUCACCCAUGUAGAAGGCUGUGCAC [JL-ex2-2.07 Brourd mod] (puzzle: Exclusion 2)”, under setting [1], the “apparent KD of MS2 coat protein” value turned out to be 27.1 nM.

In the case of “UAUAUGUCAGGAUAUUGUUAAUUUAGUUGUUUGUAUUAGUUCGAGAAGGGACAUGAGGAUCACCCAUGUUGUUU [Ex4 #57] (Eterna round: R97, puzzle: Exclusion 4)”, the “apparent KD of MS2 coat protein” value amounted to 28.8 nM (input ligand: FMN 200 uM) and 29.6 nM (input ligand: none).

Turning to “UGAUUGUUUACCAGGUUAUACAUGAGGAUCACCCAUGUAGAUCCUACGUGCGCGUUGUUCCGCUCGUCUUAUUGCCA [Sensor-V1 #80] (Eterna round: R97, puzzle: Sensor, turn-off variant 1)”, the “apparent KD of MS2 coat protein” value (input ligand: FMN 200 uM) came to 22.6 nM and the “apparent KD of MS2 coat protein” value (input ligand: none) amounted to 24.8 nM.

On to “UGGGUCCAAGGAUAUACAUGAGGAUCACCCAUGUGAGAUUCGAUGCUGUGCCAAUUGUGUAGAAGGUGGCCACC [Eternabot (L2) Solution 32] (Eterna round: R97, puzzle: Exclusion 3)”, for which the “apparent KD of MS2 coat protein” value worked out at 45.3 nM (input ligand: FMN 200 uM) and 44.1 nM (input ligand: none).

As to “AAGAAGAAGUAAGGAUAUGAAGAUCUGGUGGUGACAUGAGGAUCACCCAUGUGAAAACGAUGAGAUCAGAAGGUAUAAGAAGAA [AK ExNG2-3.3] (Eterna round: R96, puzzle: Exclusion NG 2)”, the “apparent KD of MS2 coat protein” value was determined as 116 nM (input ligand: FMN 200 uM), 59.9 nM under setting [2] and 89.4 nM (input ligand: none).

Regarding “CAUUAUUAUCGAGGAUAUCCUAUUGAAAUUCUGGGAGAAGGCGGACUCAACAUGAGGAUCACCCAUGUAAGACGGGUGCUAGGG [Ex NG1 #25] (Eterna round: R96, puzzle: Exclusion NG 1)”, the “apparent KD of MS2 coat protein” value (input ligand: FMN 200 uM) amounted to 202 nM, the “apparent KD of MS2 coat protein” value under setting [2] was determined as 93.1 nM and the “apparent KD of MS2 coat protein” value (input ligand: none) is 157 nM.

Consider “UUCUUUAUACGAGGAUAUCAUACAUGAGGAUCACCCAUGUAACUGGGUCUAUUUUUAUAUAAUAUUGAGAAGGCGUUUUGCUAU [JR_ExcNG2_Sub071] (Eterna round: R96, puzzle: Exclusion NG 2)”, for which the “apparent KD of MS2 coat protein” value reads like this: (input ligand: FMN 200 uM) 52.6 nM; under setting [2], 31.1 nM; (input ligand: none) 36.8 nM.

“GUGUUGUAUGUAGGAUAUGCAUACUGUUAGUAUGCAGAAGGACAUGAGGAUCACCCAUGUAUAUUAUUAUUAUAUAUCAUACAU [MOD of Hoglahoo's Title] (Eterna round: R96, puzzle: Exclusion NG 1)”: under setting [2], the “apparent KD of MS2 coat protein” value was 15.2 nM.

In the case of “CCAGAGGAAGGAUAUUAAGGCGUAUACAUGAGGAUCACCCAUGUCCUACACUUCGCACUAUAAGAAGGUUCCCGGA [Eternabot (Original) Solution 39] (Eterna round: R97, puzzle: Exclusion 5)”, the “apparent KD of MS2 coat protein” value is, setting by setting: (input ligand: FMN 200 uM) 193 nM; (input ligand: none) 121 nM.

For the sequence “AAUUAUUAUUGAGGAUAUGGUAGUGAAACACUACCAGAAGGCGGUAUAAACAUGAGGAUCACCCAUGUGAGCCUGAUGCUUAUG [Ex NG1 #45] (Eterna round: R96, puzzle: Exclusion NG 1)”, the “apparent KD of MS2 coat protein” value under setting [2] was found to be 18.6 nM.

For the sequence “CAUGUGUAAGGAUAUGACAAUGGUAUCUUCGGAUACCAUUGUCAGAAGGUACAUGAGGAUCACCCAUGUACAUC [Ex4-3: 17] (puzzle: Exclusion 4)”, under setting [1], the “apparent KD of MS2 coat protein” value came to 13.1 nM.

With “UAUUAGCAAGUAAGAUCCCACAUGAGGAUCACCCAUGUGCUCGUCAUAUAACGUACUGUGAGGAAACUCACGGUACG [Sensor-V1 #84] (Eterna round: R97, puzzle: Sensor, turn-off variant 1)”, the “apparent KD of MS2 coat protein” value stood at 85 nM (input ligand: FMN 200 uM) and 103 nM (input ligand: none).

Turning to “AAGAUGCGCGCAGGAUAUGGAGAGAAAGAAAGACCAGAAGGGCGGGUCACACAACAUGAGGAUCACCCAUGUGUGUGUUGCGAA [snuffleupagus] (Eterna round: R96, puzzle: Exclusion NG 1)”, the “apparent KD of MS2 coat protein” value is, setting by setting: (input ligand: FMN 200 uM) 9.29 nM; under setting [2], 9.54 nM; (input ligand: none) 12.2 nM.

Turning to “AACUGGACAGGAUAUGUACUUGAGCACUUGAGGAUCACCCAAGUCAUCAAGUACUCAGGCACAGAAGGGUUUAUUU [jl-ex5.4.69 ViennaUCT mod] (Eterna round: R97, puzzle: Exclusion 5)”, the “apparent KD of MS2 coat protein” value (input ligand: FMN 200 uM) is 311 nM and the “apparent KD of MS2 coat protein” value (input ligand: none) amounted to 200 nM.

Regarding “UGAUCUAGGCGAGGAUAUACAUGAGGAUCACCCAUGUAAACGUGACAUGGAAACAUGUCACGUGUGUAGAAGGCGCCUAGAUCU [MOD2 ENG2 3.54 by JL] (Eterna round: R96, puzzle: Exclusion NG 2)”, the “apparent KD of MS2 coat protein” value (input ligand: FMN 200 uM) was determined as 15.7 nM, the “apparent KD of MS2 coat protein” value under setting [2] stood at 10.8 nM and the “apparent KD of MS2 coat protein” value (input ligand: none) is 13.2 nM.

As for “AGCUAGUGCCGAGGAUAUGAUACAUGAGGAUCACCCAUGUGUAGGGUGUAUAUAUAUCAAUAAUAUUAGAAGGCGGCGUUGGCA [JL ENG2 1.47] (Eterna round: R96, puzzle: Exclusion NG 2)”, the “apparent KD of MS2 coat protein” value is, setting by setting: (input ligand: FMN 200 uM) 785 nM; under setting [2], 480 nM; (input ligand: none) 1480 nM.

For “AGCUGGUCAGGAUAUUUGGAGGGACUCCAAUGGUCCACGACGGAGAAGGGACAUGAGGAUCACCCAUGUGGUCG [Eternabot (L2) Solution 13] (Eterna round: R97, puzzle: Exclusion 4)”, the “apparent KD of MS2 coat protein” value reads like this: (input ligand: FMN 200 uM) 69.3 nM; (input ligand: none) 115 nM.

For “GGUAUACAUGAGGAUCACCCAUGUCAGGAUAUGGAAACAUAUGCCGAAAGGCAUAUGGCCAGAAGGGACAAUAG [AK-MS2ROC-r4-exclusion1-5.1] (Eterna round: R97, puzzle: Exclusion 1)”, the “apparent KD of MS2 coat protein” value (input ligand: FMN 200 uM) amounted to 117 nM and the “apparent KD of MS2 coat protein” value (input ligand: none) came to 77.5 nM.

In the case of “CUGUGUAGACAGGAUAUGCUGUACAAAAGUACAGCAGAAGGGUCUACAUGAGGAUCACCCAUGUUUACUUCAUG [)mei Ex6 B23] (Eterna round: R97, puzzle: Exclusion 6)”, the “apparent KD of MS2 coat protein” value reads like this: (input ligand: FMN 200 uM) 20.4 nM; (input ligand: none) 98.4 nM.

Turning to “AUUGUUUAUGUAGGAUAUGCCUGGCGUGCCUUUGCAGAAGGACAUGAGGAUCACCCAUGUAACAUGAGGCUCACCCAUGUCGCU [salish99_ExNG1_r04_112] (Eterna round: R96, puzzle: Exclusion NG 1)”, the “apparent KD of MS2 coat protein” value turned out to be 432 nM (input ligand: FMN 200 uM), 220 nM under setting [2] and 311 nM (input ligand: none).

“CUCUUGUUAGGAUAUCAAACCGGCGGCGGAGCCGCCGGUAGUGAGAAGGGACAUGAGGAUCACCCAUGUAAGAA [Isarcedi] (puzzle: Exclusion 4)”: under setting [1], the “apparent KD of MS2 coat protein” value turned out to be 65.2 nM.

Consider “AGUAGUUCAGGAUAUGAUGUUAAAUACAUGAGGAUCACCCAUGUAGAUCCUGAAUUUACAUCAGAAGGGAAUAACU [JR_Ex5_Sub082] (Eterna round: R97, puzzle: Exclusion 5)”, for which the “apparent KD of MS2 coat protein” value runs as follows: (input ligand: FMN 200 uM) 91.7 nM; (input ligand: none) 25.5 nM.

As to “GGUUUGGGAGGAUAUGGUUUGAAUAACAUGAGGAUCACCCAUGUAAAUAGAUCUUCCGGGCCAGAAGGCUCGGGCC [-23.9, -21.52 kcal, A 26%] (Eterna round: R97, puzzle: Exclusion 5)”, the “apparent KD of MS2 coat protein” value was 29.5 nM (input ligand: FMN 200 uM) and 34.6 nM (input ligand: none).

Consider “GCAAAAUAUCAGGAUAUGACUUUUUGCGUUAAGUCAGAAGGGAUAACAUGAGGAUCACCCAUGUGAUAUAGUGU [JR_Ex6_Sub031] (Eterna round: R97, puzzle: Exclusion 6)”, for which the “apparent KD of MS2 coat protein” value turned out to be 261 nM (input ligand: FMN 200 uM) and 177 nM (input ligand: none).

“UAUGUUGUUGUGAGGAUAUACUUUGUUUGACCGUAGUAGAAGGCACAUGAGGAUCACCCAUGUAGAUUUUUGGU [JR_BME4_Sub008] (puzzle: Brourd's mod of Exclusion 4)”: the “apparent KD of MS2 coat protein” value under setting [1] was determined as 9.12 nM.

“GAUCCGUUAGGAUAUGCGGGUGUCACCAGAGUGAUAGCCUCGCAGAAGGAACAUGAGGAUCACCCAUGUAGCAA [Eternabot (L1) Solution 92] (Eterna round: R97, puzzle: Exclusion 4)”: the “apparent KD of MS2 coat protein” value reads like this: (input ligand: FMN 200 uM) 111 nM; (input ligand: none) 38.6 nM.

Regarding “GUGACCAUAGGAUAUACAUGAGGAUCACCCAUGUGCAGGCCGAAAGACCUGCGGUCAUGUAGAAGGAUGUAAUU [EX3 A.17] (Eterna round: R97, puzzle: Exclusion 3)”, the “apparent KD of MS2 coat protein” value (input ligand: FMN 200 uM) stood at 19.6 nM and the “apparent KD of MS2 coat protein” value (input ligand: none) was found to be 16.4 nM.

Regarding “UCAAGUUUUUUGUUUUUUAACAUGAGGAUCACCCAUGUAUUUUUAUAGUAUGUGUGAAUAAGAUCUCGUGGUCUUAU [JR_SV3TOV1_Sub099] (puzzle: Sensor v3, turn-off variant 1)”, the “apparent KD of MS2 coat protein” value came to 31.8 nM (Eterna round: R95, input ligand: FMN 200 uM); 78.1 nM under setting [1]; 36.5 nM (Eterna round: R95, input ligand: none).

Consider “GCGCCAUCGUGAGAUGGCGUAAUUACAUGAGGAUCACCCAUGUAGGAUAUCGAUUGCUUUGCAGUCGAGAAGGGCAAGGUUUGU [JL ENG3 3.84] (Eterna round: R96, puzzle: Exclusion NG 3)”, for which the “apparent KD of MS2 coat protein” value runs as follows: (input ligand: FMN 200 uM) 25.7 nM; under setting [2], 19.9 nM; (input ligand: none) 30.9 nM.

Regarding “CCGGCUGCUGUGAGGAUAUGCCUGUGGGCCCGCGGGCAGAAGGCACAUGAGGAUCACCCAUGUCCUGCGGUCCC [salish99_bmx4_r4_117] (Eterna round: R97, puzzle: Brourd's mod of Exclusion 4)”, the “apparent KD of MS2 coat protein” value is 35 nM (input ligand: FMN 200 uM) and 33.5 nM (input ligand: none).
